{
  "source": "patent US5459256A",
  "about": "“Lipophilic, aminohydrolase-activated prodrugs” (priority 1991, dated 1995)",
  "assay_in_all_cases": "purified protein, by the assay type",
  "settings_in_all_cases": "other: pH 7.4 and 37° C.",
  "key": {"[1]": {"substrate": "OC[C@@H]1C[C@H](F)[C@H](n2cnc3c(Cl)ncnc32)O1", "description": "(§1) Deamination of dideoxyadenosine analogues by adenosine deaminase. Hydrolysis kinetics and 2'-F-dd-ara-I formation during the incubation of 50 μM N^6 -CH3 -2'-F-dd-ara-A (1f) with 0.7 units/mL of adenosine deaminase at 37° C. A unit of adenosine deaminase is the amount of enzyme which hydrolyzes a standard substrate (e.g., adenosine) at the rate of 1.0 μmole/min at 25° C. and pH 7.5. […] Insert: Adenosine deaminase hydrolysis kinetics for 50 μM ddA and 2'-F-dd-ara-A. The hydrolysis curve for ddA has been extrapolated from kinetics obtained with 0.07 units/mL of adenosine deaminase under identical conditions.\n(§2) A 50 μl aliquot of a 10 mg/ml suspension of adenosine deaminase (adenosine aminohydrolase, EC 3.5.4.4) from calf intestinal mucosa was centrifuged at 600×g for 3 min. The residue remaining after removal of the (NH4)2 SO4 supernatant was dissolved in 0.5 ml pH 7.4 tris(hydroxymethyl)-aminomethane (Tris) buffer to give an enzyme solution of 1 mg/ml (274 units/ml). […]\n(§3) Enzymatic Deamination of Adenosine Analogues. […] The decrease in substrate concentration was monitored by HPLC analysis of the resultant ultrafiltrate (see below). The ability of 2'-deoxycoformycin to inhibit deamination under the above conditions was evaluated by adding 2 μL of 1.0 mM inhibitor to diluted substrate solutions at the time of equilibration. […] Initial hydrolysis rates for each substrate concentration were measured through linear least-squares curve fitting of the concentration versus time data for reaction of the first 10% of substrate. KM and vmax values for each substrate were then determined from a graphical lineweaver-Burke plot of these initial rates (FIG. 1). […]\n(§4) Concentrations of dideoxynucleosides were measured by the HPLC analysis of 100 μL aliquots of ultrafiltered samples. […] Dideoxynucleosides and deamination products were detected at the appropriate wavelength of maximum absorption with a Gilson 116 variable wavelength detector. […] Peak areas and peak heights were measured simultaneously on a Spectra-Physics SP4200 computing integrator."}, "[2]": {"substrate": "Nc1ncnc2c1ncn2[C@H]1CC[C@@H](CO)O1", "description": "as §1, §2, §3, §4"}, "[3]": {"substrate": "CNc1ncnc2c1ncn2[C@@H]1O[C@H](CO)C[C@@H]1F", "description": "as §1, §2, §3, §4"}, "[4]": {"substrate": "Nc1ncnc2c1ncn2[C@@H]1O[C@H](CO)C[C@@H]1F"}},
  "data": [
    {"protein": "adenosine deaminase (adenosine aminohydrolase, EC 3.5.4.4) (Bos taurus) (protein) MAQTPAFNKPKVELHVHLDGAIKPETILYYGRKRGIALPADTPEELQNIIGMDKPLSLPEFLAKFDYYMPAIAGCREAVKRIAYEFVEMKAKDGVVYVEVRYSPHLLANSKVEPIPWNQAEGDLTPDEVVSLVNQGLQEGERDFGVKVRSILCCMRHQPSWSSEVVELCKKYREQTVVAIDLAGDETIEGSSLFPGHVKAYAEAVKSGVHRTVHAGEVGSANVVKEAVDTLKTERLGHGYHTLEDATLYNRLRQENMHFEVCPWSSYLTGAWKPDTEHPVVRFKNDQVNYSLNTDDPLIFKSTLDTDYQMTKNEMGFTEEEFKRLNINAAKSSFLPEDEKKELLDLLYKAYGMPSPASAEQCL", "values": [
      {"measurement": "Km", "setting": "[1]", "result": 7500, "unit": "µM"},
      {"measurement": "Km", "setting": "[2]", "result": 14, "unit": "µM"},
      {"measurement": "Km", "setting": "[3]", "result": 110, "unit": "µM"},
      {"measurement": "Km", "setting": "[4]", "result": 330, "unit": "µM"}
    ]}
  ]
}
